Test in all cases: cell_activity; CHO iGFFP reporter
In series [1] the target is T1, LOX 3-4m.949 (artificial (I-CreI derived)).
T1 chain: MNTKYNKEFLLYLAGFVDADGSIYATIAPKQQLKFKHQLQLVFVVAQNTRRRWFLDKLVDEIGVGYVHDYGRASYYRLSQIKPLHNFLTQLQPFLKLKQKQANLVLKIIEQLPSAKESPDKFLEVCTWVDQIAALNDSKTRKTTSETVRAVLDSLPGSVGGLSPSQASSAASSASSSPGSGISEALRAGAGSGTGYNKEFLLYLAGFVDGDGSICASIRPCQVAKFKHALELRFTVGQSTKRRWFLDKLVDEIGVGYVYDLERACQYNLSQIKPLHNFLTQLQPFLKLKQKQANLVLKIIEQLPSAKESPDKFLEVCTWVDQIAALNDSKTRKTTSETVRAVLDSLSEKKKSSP
An excerpt: (§1) A CHO cell reporter system (see WO/2012/167192, FIG. 3) was used to determine whether the engineered meganucleases generated in these studies could recognize and cleave the modified LOX 3-4 recognition sequences in Table 87. To perform the assay, a pair of CHO cell reporter lines were produced, which carried a non-functional Green Fluorescent Protein (GFP) gene expression cassette integrated into the genome of the cell. The GFP gene in each cell line was interrupted by a pair of recognition sequences such that intracellular cleavage of either recognition sequence by a meganuclease would stimulate a homologous recombination event resulting in a functional GFP gene. In both cell lines, one of the recognition sequences was derived from the LOX 3-4 recognition sequence (i.e., those sequences disclosed in Table 87), and the second recognition sequence was specifically recognized by a control meganuclease called “CHO 23/24.” CHO reporter cells comprising a recognition sequence derived from the LOX 3-4 recognition sequence and the CHO 23/24 recognition sequence are referred to herein as “test cells.”
(§2) Novel engineered meganucleases derived from the LOX 3-4x.109 meganuclease were prepared by making amino acid substitutions at one or more positions in the first subunit and one or more positions in the second subunit. These engineered meganucleases were then evaluated for cleavage of the LOX 3-4 recognition sequence, which normally comprises an ACAT center sequence (SEQ ID NO: 44) in the CHO reporter assay according to Example 1.

The target in series [2] is T2, LOX 3-4m.893 (artificial (I-CreI derived)).
T2 chain: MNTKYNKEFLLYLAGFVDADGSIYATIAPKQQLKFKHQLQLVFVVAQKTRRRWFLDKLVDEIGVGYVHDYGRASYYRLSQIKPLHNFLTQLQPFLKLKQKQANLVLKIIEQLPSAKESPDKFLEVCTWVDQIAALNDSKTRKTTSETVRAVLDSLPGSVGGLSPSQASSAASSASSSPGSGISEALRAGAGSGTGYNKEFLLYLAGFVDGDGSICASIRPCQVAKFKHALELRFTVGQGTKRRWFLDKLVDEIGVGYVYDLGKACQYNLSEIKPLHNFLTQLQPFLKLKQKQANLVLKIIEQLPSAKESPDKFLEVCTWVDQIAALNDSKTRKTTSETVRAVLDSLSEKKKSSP
Text: as §1, §2

Series [3] concerns the target T3, LOX 3-4m.925 (artificial (I-CreI derived)).
T3 chain: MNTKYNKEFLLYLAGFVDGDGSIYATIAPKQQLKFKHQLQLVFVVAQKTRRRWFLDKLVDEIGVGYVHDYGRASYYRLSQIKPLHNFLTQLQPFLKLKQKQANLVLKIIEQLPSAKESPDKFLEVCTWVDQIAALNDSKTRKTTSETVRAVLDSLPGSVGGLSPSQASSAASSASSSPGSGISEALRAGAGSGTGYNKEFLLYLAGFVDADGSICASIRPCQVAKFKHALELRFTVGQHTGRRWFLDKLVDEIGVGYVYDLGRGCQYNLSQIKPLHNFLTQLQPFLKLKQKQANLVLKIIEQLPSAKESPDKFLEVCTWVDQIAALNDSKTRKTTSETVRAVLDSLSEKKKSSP
Text: as §1, §2

In series [4] the target is T4, LOX 3-4m.869 (artificial (I-CreI derived)).
T4 chain: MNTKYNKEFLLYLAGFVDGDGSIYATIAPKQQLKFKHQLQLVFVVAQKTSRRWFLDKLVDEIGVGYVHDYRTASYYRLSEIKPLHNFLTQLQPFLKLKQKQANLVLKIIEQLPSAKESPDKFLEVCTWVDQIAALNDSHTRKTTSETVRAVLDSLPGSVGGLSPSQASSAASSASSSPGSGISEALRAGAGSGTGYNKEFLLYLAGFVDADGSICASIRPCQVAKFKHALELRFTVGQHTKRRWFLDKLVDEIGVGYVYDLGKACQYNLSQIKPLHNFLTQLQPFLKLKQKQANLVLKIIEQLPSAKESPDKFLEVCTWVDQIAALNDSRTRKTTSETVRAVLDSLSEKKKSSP
Text: as §1, §2

Series [5] addresses T5, LOX 3-4m.956 (artificial (I-CreI derived)).
T5 chain: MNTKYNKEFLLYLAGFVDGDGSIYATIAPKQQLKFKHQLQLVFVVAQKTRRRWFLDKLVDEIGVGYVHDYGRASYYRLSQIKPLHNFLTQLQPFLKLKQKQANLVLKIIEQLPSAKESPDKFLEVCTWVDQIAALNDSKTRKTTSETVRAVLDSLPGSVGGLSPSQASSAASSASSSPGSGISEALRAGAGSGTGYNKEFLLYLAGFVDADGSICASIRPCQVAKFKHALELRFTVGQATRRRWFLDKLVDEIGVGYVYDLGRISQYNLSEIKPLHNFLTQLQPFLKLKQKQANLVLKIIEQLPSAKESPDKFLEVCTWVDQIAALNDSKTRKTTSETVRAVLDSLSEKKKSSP
Text: as §1
(§3) Novel engineered meganucleases derived from the LOX 3-4x.109 meganuclease were prepared by making amino acid substitutions at one or more positions in the first subunit and one or more positions in the second subunit. These engineered meganucleases were then evaluated for cleavage of the LOX 3-4 recognition sequence modified to have an ACGA center sequence (SEQ ID NO: 68) in the CHO reporter assay according to Example 1.

For series [6], the target named is T6, LOX 3-4m.1036 (artificial (I-CreI derived)).
T6 chain: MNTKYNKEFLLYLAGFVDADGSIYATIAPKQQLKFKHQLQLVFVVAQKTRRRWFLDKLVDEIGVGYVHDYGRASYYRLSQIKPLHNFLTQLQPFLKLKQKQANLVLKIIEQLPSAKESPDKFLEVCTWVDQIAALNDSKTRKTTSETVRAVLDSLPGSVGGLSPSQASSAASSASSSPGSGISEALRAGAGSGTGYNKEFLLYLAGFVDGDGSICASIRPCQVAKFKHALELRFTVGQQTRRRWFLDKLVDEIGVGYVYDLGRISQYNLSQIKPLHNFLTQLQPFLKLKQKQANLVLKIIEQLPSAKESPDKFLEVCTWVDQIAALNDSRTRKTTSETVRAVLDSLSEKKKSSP
Text: as §1, §3

The target in series [7] is T7, LOX 3-4m.1013 (artificial (I-CreI derived)).
T7 chain: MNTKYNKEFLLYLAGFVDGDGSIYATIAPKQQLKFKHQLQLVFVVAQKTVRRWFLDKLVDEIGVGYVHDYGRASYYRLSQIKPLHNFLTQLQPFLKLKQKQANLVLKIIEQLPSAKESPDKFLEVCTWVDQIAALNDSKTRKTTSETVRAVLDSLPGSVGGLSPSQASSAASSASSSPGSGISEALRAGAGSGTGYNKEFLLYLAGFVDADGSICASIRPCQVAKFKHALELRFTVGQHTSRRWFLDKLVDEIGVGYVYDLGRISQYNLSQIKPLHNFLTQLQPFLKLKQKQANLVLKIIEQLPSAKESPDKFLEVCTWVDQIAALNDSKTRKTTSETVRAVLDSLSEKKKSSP
Text: as §1, §3

Series [8] addresses T8, LOX 3-4m.1044 (artificial (I-CreI derived)).
T8 chain: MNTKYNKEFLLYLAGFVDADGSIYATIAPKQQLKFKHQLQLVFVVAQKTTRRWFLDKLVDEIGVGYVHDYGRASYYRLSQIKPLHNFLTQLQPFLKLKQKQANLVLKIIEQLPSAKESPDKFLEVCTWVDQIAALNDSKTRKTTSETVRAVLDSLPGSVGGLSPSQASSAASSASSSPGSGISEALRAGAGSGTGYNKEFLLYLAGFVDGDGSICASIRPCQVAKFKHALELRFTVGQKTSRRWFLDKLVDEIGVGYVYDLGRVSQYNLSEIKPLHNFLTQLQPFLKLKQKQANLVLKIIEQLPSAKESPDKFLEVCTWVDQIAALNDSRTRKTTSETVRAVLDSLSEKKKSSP
Text: as §1, §3

Series [9] has as its target T9, LOX 3-4m.494 (artificial (I-CreI derived)).
T9 chain: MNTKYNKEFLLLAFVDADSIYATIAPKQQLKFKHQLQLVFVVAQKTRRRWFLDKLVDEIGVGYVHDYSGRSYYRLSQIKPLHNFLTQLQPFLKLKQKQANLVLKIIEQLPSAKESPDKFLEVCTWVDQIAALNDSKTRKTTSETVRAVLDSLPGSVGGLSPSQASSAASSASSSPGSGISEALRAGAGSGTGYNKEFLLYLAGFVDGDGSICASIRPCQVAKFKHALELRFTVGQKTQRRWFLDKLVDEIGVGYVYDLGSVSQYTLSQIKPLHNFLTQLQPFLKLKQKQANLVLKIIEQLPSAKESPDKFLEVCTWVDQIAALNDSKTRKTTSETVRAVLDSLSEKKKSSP
Text: as §1
as §3, with “subunit. The N-terminal subunit recognizes the reverse complement of the AG portion of the four base pair center sequence, which is CT, and the C-terminal subunit recognizes the GC portion of the […] center sequence.” for “subunit.”, “a GCAG” for “an ACGA”, “326)” for “68)”, “1. The substitutions in each subunit are provided in Tables 180 and 181, respectively.” for “1.”

Series [10] deals with T10, LOX 3-4m.509 (artificial (I-CreI derived)).
T10 chain: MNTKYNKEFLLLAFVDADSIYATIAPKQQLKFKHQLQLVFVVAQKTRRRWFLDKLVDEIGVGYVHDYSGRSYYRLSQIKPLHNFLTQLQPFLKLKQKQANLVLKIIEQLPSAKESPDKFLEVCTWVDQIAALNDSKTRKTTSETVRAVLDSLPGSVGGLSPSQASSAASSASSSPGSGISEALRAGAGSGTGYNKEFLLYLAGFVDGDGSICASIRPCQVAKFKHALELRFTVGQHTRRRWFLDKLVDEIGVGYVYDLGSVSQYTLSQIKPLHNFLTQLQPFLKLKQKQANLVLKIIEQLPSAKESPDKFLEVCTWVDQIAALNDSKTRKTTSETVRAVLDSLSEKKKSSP
Text: as §1
as §3, with “subunit. The N-terminal subunit recognizes the reverse complement of the AG portion of the four base pair center sequence, which is CT, and the C-terminal subunit recognizes the GC portion of the […] center sequence.” for “subunit.”, “a GCAG” for “an ACGA”, “326)” for “68)”, “1. The substitutions in each subunit are provided in Tables 180 and 181, respectively.” for “1.”

Series [11] addresses T11, LOX 3-4m.524 (artificial (I-CreI derived)).
T11 chain: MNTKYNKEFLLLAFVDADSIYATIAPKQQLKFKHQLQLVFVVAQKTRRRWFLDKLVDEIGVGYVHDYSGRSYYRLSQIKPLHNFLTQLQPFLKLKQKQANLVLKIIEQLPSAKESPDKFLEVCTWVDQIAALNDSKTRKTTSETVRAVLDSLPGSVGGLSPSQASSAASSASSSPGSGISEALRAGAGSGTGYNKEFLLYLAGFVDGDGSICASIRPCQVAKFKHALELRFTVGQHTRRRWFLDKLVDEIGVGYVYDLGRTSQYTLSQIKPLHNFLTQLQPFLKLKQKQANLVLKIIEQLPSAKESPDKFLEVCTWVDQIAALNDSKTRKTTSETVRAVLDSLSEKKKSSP
Text: as §1
as §3, with “subunit. The N-terminal subunit recognizes the reverse complement of the AG portion of the four base pair center sequence, which is CT, and the C-terminal subunit recognizes the GC portion of the […] center sequence.” for “subunit.”, “a GCAG” for “an ACGA”, “326)” for “68)”, “1. The substitutions in each subunit are provided in Tables 180 and 181, respectively.” for “1.”

B1: LOX 3-4 ACAT (native LOX 3-4 site, SEQ 6) (dsDNA)
DNA 1: GTATAGCATACATTATACGAAG
DNA 2: CTTCGTATAATGTATGCTATAC
Consider B1, for which the activity in series [1] came out at 12.5 % GFP; in series [2], 13.1 % GFP; in [3], 12.2 % GFP; in series [4] it was 11.2 % GFP.

B2: LOX 3-4 ACGA (dsDNA)
DNA 1: GTATAGCATACGATATACGAAG
DNA 2: CTTCGTATATCGTATGCTATAC
With B2, the activity in [5] came out at 4.7 % GFP; in [6], 5 % GFP; in [7] it was 1.7 % GFP; in [8], 5.8 % GFP.

B3: LOX 3-4 GCAG (dsDNA)
DNA 1: GTATAGCATGCAGTATACGAAG
DNA 2: CTTCGTATACTGCATGCTATAC
As to B3, the activity in series [9] was found to be 13.8 % GFP; in series [10] it was 13.4 % GFP; in series [11], 16.6 % GFP.
